The target in experiment [1] is T1, human EphB6 on transiently transfected Ad293 cells (human, UniProt O15197 32-1021).
T1 construct: whole, on cells; also called EphB6-expressing cells
T1 sequence (looked up): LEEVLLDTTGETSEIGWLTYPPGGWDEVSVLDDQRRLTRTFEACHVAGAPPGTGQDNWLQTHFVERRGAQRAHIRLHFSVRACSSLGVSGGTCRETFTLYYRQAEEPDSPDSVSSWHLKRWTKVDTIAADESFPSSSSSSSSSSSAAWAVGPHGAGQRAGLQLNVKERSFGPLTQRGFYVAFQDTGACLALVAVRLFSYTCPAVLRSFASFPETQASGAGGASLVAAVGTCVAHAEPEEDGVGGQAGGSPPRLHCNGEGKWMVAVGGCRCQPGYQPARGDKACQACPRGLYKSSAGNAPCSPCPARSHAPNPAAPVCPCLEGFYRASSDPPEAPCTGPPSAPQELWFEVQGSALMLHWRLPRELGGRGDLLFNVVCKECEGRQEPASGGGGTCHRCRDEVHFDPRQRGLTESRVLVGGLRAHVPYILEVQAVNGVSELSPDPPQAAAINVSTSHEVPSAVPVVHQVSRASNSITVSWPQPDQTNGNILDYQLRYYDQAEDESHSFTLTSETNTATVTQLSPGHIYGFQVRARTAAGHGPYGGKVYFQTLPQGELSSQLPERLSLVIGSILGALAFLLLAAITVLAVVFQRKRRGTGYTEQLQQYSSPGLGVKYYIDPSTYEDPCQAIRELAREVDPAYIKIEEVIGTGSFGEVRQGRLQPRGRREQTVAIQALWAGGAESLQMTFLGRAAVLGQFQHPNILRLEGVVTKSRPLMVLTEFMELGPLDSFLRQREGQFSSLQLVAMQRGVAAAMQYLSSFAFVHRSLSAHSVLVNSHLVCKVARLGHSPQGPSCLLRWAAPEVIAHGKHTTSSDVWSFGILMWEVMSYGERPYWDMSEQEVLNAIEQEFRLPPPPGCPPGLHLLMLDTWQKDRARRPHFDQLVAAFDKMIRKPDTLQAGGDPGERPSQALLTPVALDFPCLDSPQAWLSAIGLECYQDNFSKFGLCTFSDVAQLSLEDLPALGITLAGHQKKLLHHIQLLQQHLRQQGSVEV
Kind of experiment: Flow cytometry on Ad293 cells transiently transfected with human EphB6 (off-target binding). The text has this:
Ad293 cells were transiently transfected with a plasmid expressing human EphB6.

Experiment [2] has as its target T2, human LRRC15 recombinant extracellular domain protein (human, UniProt Q8TF66 22-538).
T2 construct: extracellular domain; also called LRRC15 human
T2 sequence (looked up): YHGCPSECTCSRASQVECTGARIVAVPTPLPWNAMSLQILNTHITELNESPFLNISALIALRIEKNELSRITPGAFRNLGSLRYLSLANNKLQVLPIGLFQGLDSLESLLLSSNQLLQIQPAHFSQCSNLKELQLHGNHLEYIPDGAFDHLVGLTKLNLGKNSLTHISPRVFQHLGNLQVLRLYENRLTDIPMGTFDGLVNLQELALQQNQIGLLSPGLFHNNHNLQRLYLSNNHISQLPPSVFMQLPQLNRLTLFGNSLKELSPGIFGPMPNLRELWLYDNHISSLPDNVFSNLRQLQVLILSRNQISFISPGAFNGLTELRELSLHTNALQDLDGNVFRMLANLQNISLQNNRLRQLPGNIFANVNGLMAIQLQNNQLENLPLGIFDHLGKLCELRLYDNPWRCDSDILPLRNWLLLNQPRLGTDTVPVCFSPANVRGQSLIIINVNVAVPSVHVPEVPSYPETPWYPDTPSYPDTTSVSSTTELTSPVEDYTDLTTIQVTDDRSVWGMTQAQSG
Kind of experiment: SPR single-cycle kinetics (Biacore 8K+), TCE captured on Protein G chip, LRRC15 ECD as analyte, 1:1 fit, average of 3 or 4 replicates. The text has this: (§1) The fully corrected binding data were globally fitted to a 1:1 binding model to determine the KD using the Biacore™ Insight Evaluation Software (CYTIVA). Coloured sensorgram trace represents the raw data and black line the global 1:1 fit to that data. Values for kinetics parameters is shown in Table 8 are averages for 3 or 4 replicate sets of measurements.
In general terms: In SPR one partner is held on a chip, and binding of the other changes the refractive index at the surface.

The target in experiment [3] is T3, cyno LRRC15 recombinant extracellular domain protein (cyno, UniProt G7NYR2 22-538).
T3 construct: extracellular domain; also called LRRC15 cyno
The experiment is described as above.
Source text: as §1

For experiment [4], the target named is T4, soluble recombinant human CD8a protein (human, UniProt P01732 22-182, biotinylated).
T4 construct: also called CD8α Human
T4 sequence (P01732 22-182 limits assumed): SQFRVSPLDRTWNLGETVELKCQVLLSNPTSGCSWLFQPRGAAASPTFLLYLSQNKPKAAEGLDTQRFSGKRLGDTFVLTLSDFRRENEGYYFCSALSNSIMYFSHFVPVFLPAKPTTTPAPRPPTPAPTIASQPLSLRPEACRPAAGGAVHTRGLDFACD
Put plainly: biolayer interferometry (Octet RED384), biotinylated antigen on streptavidin biosensors. The method, then:
(§2) Binding kinetics were measured by biolayer interferometry on an OCTET 384 instrument. Streptavidin (SA) biosensors were loaded with biotinylated protein antigens (ACRO Biosystems, Newark, DE) in PBS pH 7.2, 1 mg/mL BSA, 0.05% (v/v) TWEEN (Kinetic buffer). The loaded biosensors were washed in the same buffer before carrying out association and dissociation measurements with various antibodies for the indicated times. Kinetic parameters (Kₒₙ and Koff) and affinities (KD) were calculated from a non-linear fit of the data using the OCTET software v.12.2.1.24.
(BLI is a label-free optical method that tracks binding on a fibre tip over time.)

For experiment [5], the target named is T5, soluble recombinant human GPC3 protein (human, UniProt P51654 25-559, biotinylated in the biolayer interferometry assay).
T5 construct: also called GPC3 human
T5 sequence (P51654 25-559 limits assumed): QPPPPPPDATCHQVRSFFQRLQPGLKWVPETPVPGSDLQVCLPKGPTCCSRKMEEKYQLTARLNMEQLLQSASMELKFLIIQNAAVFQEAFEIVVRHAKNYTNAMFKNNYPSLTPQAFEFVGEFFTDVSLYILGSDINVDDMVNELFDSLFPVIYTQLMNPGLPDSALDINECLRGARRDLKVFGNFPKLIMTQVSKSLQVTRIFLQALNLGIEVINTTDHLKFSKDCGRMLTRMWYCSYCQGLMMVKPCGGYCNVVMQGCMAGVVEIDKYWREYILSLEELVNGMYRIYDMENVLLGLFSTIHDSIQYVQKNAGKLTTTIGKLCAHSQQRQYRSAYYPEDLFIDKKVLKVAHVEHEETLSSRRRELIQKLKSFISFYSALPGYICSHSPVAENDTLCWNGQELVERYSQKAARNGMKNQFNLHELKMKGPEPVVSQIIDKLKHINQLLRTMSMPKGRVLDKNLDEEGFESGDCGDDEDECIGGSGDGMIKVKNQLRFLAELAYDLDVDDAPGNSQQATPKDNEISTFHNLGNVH
Put plainly: biolayer interferometry (Octet), biotinylated antigen on streptavidin biosensors. As to the method: as §2

Where a chain is given by its changes, count along the chain named.

Broadly, the Kd is the constant that tells how readily two partners part at equilibrium. In general, koff refers to the first-order rate constant of dissociation. The kon is a measure of how fast the partners come together.

B1: TPP-46959 (other)
light: not shown
heavy 1: EVQLVQSGAEVKKPGASVKVSCKASGYKFSSYWIEWVKQAPGQGLEWIGEILPGSDTTNYAQKFQDRVTFTSDTSISTAYMELSRLRSDDTAVYYCARDRGNYRAWFGYWGQGTLVTVSSASTKGPSVFPLAPSSKSTSGGTAALGCLVKDYFPEPVTVSWNSGALTSGVHTFPAVLQSSGLYSLSSVVTVPSSSLGTQTYICNVNHKPSNTKVDKRVEPKSCDKTGGSEVQLVESGGGLVQPGGSLRLSCVASGDVHKINFLGWYRQAPGKEREKVAHISIGDQTDYADSAKGRFTISRDESKNMVYLQMNSLKPEDTAVYFCRAFSRIYPYDYWGQGTLVTVSSGGGGSTHTCPPCPAPPVAGPSVFLFPPKPKDTLMISRTPEVTCVVVDVKHEDPEVKFNWYVDGVEVHNAKTKPREEQYNSTYRVVSVLTVLHQDWLNGKEYKCKVSNKALPAPIEKTISKAKGQPREPQVCTLPPSREEMTKNQVSLSCAVKGFYPSDIAVEWESNGQPENNYKTTPPVLDSDGSFFLVSKLTVDKSRWQQGNVFSCSVMHEALHNRFTQKSLSLSPGK
heavy 2: EVQLVQSGAEVKKPGASVKVSCKASGYKFSSYWIEWVKQAPGQGLEWIGEILPGSDTTNYAQKFQDRVTFTSDTSISTAYMELSRLRSDDTAVYYCARDRGNYRAWFGYWGQGTLVTVSSASTKGPSVFPLAPSSKSTSGGTAALGCLVKDYFPEPVTVSWNSGALTSGVHTFPAVLQSSGLYSLSSVVTVPSSSLGTQTYICNVNHKPSNTKVDKRVEPKSCDKTGGSEVQLLESGGGLVQPGGSLRLSCAASGFTFTDYAIGWFRQAPGKEREGVSCIRVSDGSTYYADSVKGRFTISRDSSKNTLYLQMNSLRAEDTAVYYCAAGSLYTCVQSIVWPARPYYDMDYWGQGTLVTVSSGGGGSTHTCPPCPAPPVAGPSVFLFPPKPKDTLMISRTPEVTCVVVDVKHEDPEVKFNWYVDGVEVHNAKTKPREEQYNSTYRVVSVLTVLHQDWLNGKEYKCKVSNKALPAPIEKTISKAKGQPREPQVYTLPPCREEMTKNQVSLWCLVKGFYPSDIAVEWESNGQPENNYKTTPPVLDSDGSFFLYSKLTVDKSRWQQGNVFSCSVMHEALHNHYTQKSLSLSPGK
notes: T-cell engager in the CD8/TCR format: 2x LRRC15 Fab, 1x TCR VHH, 1x CD8 VHH; Residue 55 of L-CDR2 is E
With B1, in experiment [1], the binding result is recorded as “binds”. Besides, the Kd in experiment [2] was found to be 1.34 nM; in experiment [3], 3 nM.

B2: TPP-46956 (other)
light: not shown
heavy 1: B1 heavy 1 with K63N
heavy 2: B1 heavy 2 with K63N
notes: T-cell engager in the CD8/TCR format: 2x LRRC15 Fab, 1x TCR VHH, 1x CD8 VHH
In the case of B2, in experiment [1], the binding result is recorded as “binds”. The Kd in experiment [2] amounted to 2.24 nM; in experiment [3], 4.8 nM.

B3: TPP-46960 (other)
light: not shown
heavy 1: B1 heavy 1
heavy 2: B1 heavy 2
notes: T-cell engager in the CD8/TCR format: 2x LRRC15 Fab, 1x TCR VHH, 1x CD8 VHH; Residue 55 of L-CDR2 is N
B3: the binding result in experiment [1] is given as “binds”. In addition, the Kd in experiment [2] is 0.98 nM; in experiment [3], 2.24 nM.

B4: TPP-46957 (other)
light: not shown
heavy 1: B1 heavy 1 with K63Q
heavy 2: B1 heavy 2 with K63Q
notes: as for B2
Take B4: in experiment [1], the binding result is listed as “binds”. In addition, the dissociation constant Kd was 2.27 nM in experiment [2] and 4.55 nM in experiment [3].

B5: TPP-46958 (other)
light: not shown
heavy 1: B1 heavy 1 with T57A
heavy 2: B1 heavy 2 with T57A
notes: as for B2
For B5, the binding result in experiment [1] is reported as “binds”. For the same molecule, the equilibrium dissociation constant (Kd) in experiment [2] worked out at 3.1 nM; in experiment [3], 6.4 nM.

B6: anti-CD8 VHH (VHH)
VHH: EVQLLESGGGLVQPGGSLRLSCAASGFTFDDYAIGWFRQAPGKEREGVSCIRVSDGSTYYADSVKGRFTISRDNSKNTLYLQMNSLRAEDTAVYYCAAGSLYTCVQSIVWPARPYYDMDYWGQGTLV
notes: also called CD8 VHHb
As for B6, in experiment [4], the dissociation constant Kd was found to be 55.3 nM, the off-rate (koff) stood at 0.0286 s⁻¹ and the kon was determined as 517000 M⁻¹ s⁻¹.

B7: anti-GPC3 Fab (Fab, V domains shown)
VH: QVQLVQSGAEVKKPGASVKVSCKASGYTFTDYEMHWVRQAPGQGLEWMGALDPKTGDTAYSQKFKGRVTLTADKSTSTAYMELSSLTSEDTAVYYCTRFYSYTYWGQGTLVTVSS
VL: DVVMTQSPLSLPVTPGEPASISCRSSQSLVHSNRNTYLHWYLQKPGQSPQLLIYKVSNRFSGVPDRFSGSGSGTDFTLKISRVEAEDVGVYYCSQNTHVPPTFGQGTKLEIK
For the molecule B7, in experiment [5], the equilibrium dissociation constant (Kd) is 1.87 nM, the koff was 0.000422 s⁻¹ and the kon came out at 226000 M⁻¹ s⁻¹.

The values above are taken from US20250115678A1 (AstraZeneca / MedImmune, published 2025).
